Assay results as given in patent US20220031813A1, “INHIBITOR OF EXTRACELLULAR TRAP FORMATION IN LEUKOCYTES” (priority 2013, published 2022).

How the values were obtained:
human neutrophils [1] = test: Rate of NETs formation in PMA-stimulated neutrophils after pre-treatment, counted by confocal microscopy; format: cell-based
[2] = system: histone-induced thrombus (DIC) model mice; test: Survival rate/lifetime extension of histone-induced thrombus (DIC) model mice; format: in vivo, mouse; conditions: 20 mg/kg i.v. 30 minutes before histone 80 mg/kg, n=8; control: one alive; p=0.0005
Procedure: 80 mg/kg of histone (sigma, H9250) dissolved in physiological saline and left at 37° C. was intravenously administered to the tails of 11 week old male C57BL/6 mice to create DIC model mice (Tobias A. et al., blood, 29 Sep. 2011, vol. 118, no. 13, pp. 3708-3714). As a pre-treatment, 20 mg/kg of bovine lactoferrin was intravenously administered to the tails of the mice, and 30 minute later, histone was intravenously administered to the tails of the mice (n=8). These mice were labeled as a group of mice provided with therapy with lactoferrin. To the tails of different mice (n=8), 100 μl of physiological saline not containing bovine lactoferrin was intravenously administered, and 30 minutes later, histone was intravenously administered. These mice were labeled as a control group of mice provided with no therapy. The survival rate/lifetime extension after the administration of histone was evaluated by use of the Kaplan-Meier method. The control group of mice provided with no therapy gradually started to die about 20 minutes after the administration of histone. Two days later, two mice were alive, and 4 days later, one mouse was alive. By contrast, the 8 mice in the group provided with therapy with bovine lactoferrin were all alive even 4 days later. […]

[3] = system: histone-induced thrombus model mice; test: Bleeding time duration in histone-induced thrombus model mice; format: in vivo, mouse; conditions: 20 mg/kg i.v. 30 minutes before histone 60 mg/kg, n=5, vs no therapy; p<0.0001
Procedure: As a pre-treatment, 20 mg/kg of bovine lactoferrin was intravenously administered to the tails of 11 week old male C57BL/6 mice, and 30 minute later, 60 mg/kg of histone (sigma, H9250) dissolved in physiological saline and left at 37° C. was intravenously administered to the tails of the mice to check the effect of hemostasis on the DIC model mice (n=5) (Tobias A, et al., Blood, 2011; 118: pp. 3708-3714) (75% of the amount of histone used for improving the survival rate/lifetime extension was adopted). For control group mice without therapy (n=5), 100 μl of physiological saline not containing bovine lactoferrin was intravenously administered to the tails 30 minutes before the administration of histone. For healthy control mice (n=5), physiological saline, instead of the bovine lactoferrin used for the pre-treatment and also instead of histone, was administered. Twenty minutes after the administration of histone, the vein of the tail of each mouse was cut at a position 3 mm from the end, and immersed in a 37° C. physiological saline. At every 30 seconds, the blood was wiped off with a filter paper, and the bleeding time duration was measured (in the case where the bleeding time duration was 15 minutes or longer, the bleeding time duration was recorded as 15 minutes and a hemostasis treatment was performed) (Fuchs T A, et al., Blood, 2011; 118:3708-3714).

[4] = system: histone-induced thrombus model mice; test: Bleeding in lung tissues of histone-induced thrombus model mice; format: in vivo, mouse; conditions: 20 mg/kg i.v. 30 minutes before histone 80 mg/kg, n=4, ten minutes after histone
Procedure: As a pre-treatment, 20 mg/kg of bovine lactoferrin was intravenously administered to the tails of 11 week old male C57BL/6 mice, and 30 minute later, 80 mg/kg of histone (sigma, H9250) dissolved in physiological saline and left at 37° C. was intravenously administered to tails of the mice to create DIC model mice (n=4) (Tobias A., et al., Blood, 29 Sep. 2011; vol. 118: no. 13, pp. 3708-3714). For control group mice with no therapy (n=4), 100 μl of physiological saline not containing bovine lactoferrin was intravenously administered to the tails 30 minutes before histone was intravenously administered. For healthy control group mice (n=4), physiological saline, instead of the bovine lactoferrin used for the pre-treatment and also instead of histone, was administered. Ten minutes after the administration of histone (second administration of physiological saline), the mice were put to euthanasia. Lung tissues were extracted and immobilized by use of 4% paraformaldehyde.

human neutrophils [5] = test: Specificity experiment: inhibition of NETs formation by DNA concentration in the culture supernatant; format: cell-based; conditions: n=3, p<0.01, FIG. 10
Procedure: About 1 hour after the isolation of the neutrophils described in “1. Method of isolating human neutrophils” in Example 2, the neutrophils were pre-treated. On an 8-well microslide (Cat. No. ib 80826 Ibidi (registered trademark)), the neutrophils were seeded in 400 μl of culture DMEM+2% human serum Alb (serum human albumin; Product No. A9080 Sigma+4 mM L-glutamine) at a rate of about 1.0×10^5 cells/well, and stimulated with PMA (final concentration: 25 nM, stock: 10 mM in DMSO, Sigma Prod No. P8139). At thirty minutes before the stimulation, and at every one hour or every two hours after the stimulation, 200 μg/ml of human lactoferrin (stock: 100 mg/ml, 200 μl; Cat. No. SIGL6793, SIGMA) was added to perform inhibition [FIG. 2].
The culture supernatant was recovered and centrifuged at 200×g for 10 minutes, and the supernatant was transferred to a new microscopic centrifuge tube. The DNA amount was measured by use of Picogreen dsDNA assay reagent (P11496 Invitrogen) in accordance with an accompanying protocol. Treatment with human lactoferrin at one hour and two hours after the stimulation was a similar effect to the prior pre-treatment, the DNA concentration in the culture supernatant decreased, resulting in suppression of the release of the DNAs by the NETs [FIG. 2]. […]

[6] = bovine proteins; cited from earlier work

B1: bovine lactoferrin: bovine lactoferrin (Product No. 123-04124 WAKO); in Example 9 eluted from crude bovine milk protein; cow lactoferrin SEQ ID NO 2 (protein, listed as Bos taurus)
chain: MKLFVPALLSLGALGLCLAAPRKNVRWCTISQPEWFKCRRWQWRMKKLGAPSITCVRRAFALECIRAIAEKKADAVTLDGGMVFEAGRDPYKLRPVAAEIYGTKESPQTHYYAVAVVKKGSNFQLDQLQGRKSCHTGLGRSAGWIIPMGILRPYLSWTESLEPLQGAVAKFFSASCVPCIDRQAYPNLCQLCKGEGENQCACSSREPYFGYSGAFKCLQDGAGDVAFVKETTVFENLPEKADRDQYELLCLNNSRAPVDAFKECHLAQVPSHAVVARSVDGKEDLIWKLLSKAQEKFGKNKSRSFQLFGSPPGQRDLLFKDSALGFLRIPSKVDSALYLGSRYLTTLKNLRETAEEVKARYTRVVWCAVGPEEQKKCQQWSQQSGQNVTCATASTTDDCIVLVLKGEADALNLDGGYIYTAGKCGLVPVLAENRKSSKHSSLDCVLRPTEGYLAVAVVKKANEGLTWNSLKDKKSCHTAVDRTAGWNIPMGLIVNQTGSCAFDEFFSQSCAPGADPKSRLCALCAGDDQGLDKCVPNSKEKYYGYTGAFRCLAEDVGDVAFVKNDTVWENTNGESTADWAKNLNREDFRLLCLDGTRKPVTEAQSCHLAVAPNHAVVSRSDRAAHVKQVLLHQQALFGKNGKNCPDKFCLFKSETKNLLFNDNTECLAKLGGRPTYEEYLGTEYVTAIANLKKCSTSPLLEACAFLTR
With B1 the “rate of the NETs formed at plateau, compared with stimulation merely with PMA” value (human neutrophils [1]; pre-treatment 2 μg/ml for 30 minutes, then PMA 25 nM) was “half”, the “rate of the NETs formed at plateau, compared with stimulation merely with PMA” value (human neutrophils [1]; pre-treatment 20 μg/ml for 30 minutes, then PMA 25 nM) was “half” and the “formation of the NETs at plateau, compared with stimulation merely with PMA” value (human neutrophils [1]; pre-treatment 200 μg/ml for 30 minutes, then PMA 25 nM) was “¼”. The “inhibitory effect on the formation of the NETs” value (human neutrophils [1]; pre-treatment with 2, 20 or 200 μg/ml, FIG. 1-A, 1-B) was “concentration-dependent manner”, the “mice alive 4 days after histone” value [2] was 8 mice and the bleeding time duration [3] was “significantly shorter”. The “bleeding in lung tissues” value [4] was “not observed to bleed almost at all”, the “inhibition of the formation of the NETs” value (human neutrophils [5]) was “inhibited” and the Isoelectric point [6] was 8.2-8.9.
